Earlier results as cited in article PMC130215.

Biological target: LIR-1 (ILT2) (Homo sapiens) (UniProt Q8NHL6)
Chain of UniProt Q8NHL6 (Q8NHL6 24-461): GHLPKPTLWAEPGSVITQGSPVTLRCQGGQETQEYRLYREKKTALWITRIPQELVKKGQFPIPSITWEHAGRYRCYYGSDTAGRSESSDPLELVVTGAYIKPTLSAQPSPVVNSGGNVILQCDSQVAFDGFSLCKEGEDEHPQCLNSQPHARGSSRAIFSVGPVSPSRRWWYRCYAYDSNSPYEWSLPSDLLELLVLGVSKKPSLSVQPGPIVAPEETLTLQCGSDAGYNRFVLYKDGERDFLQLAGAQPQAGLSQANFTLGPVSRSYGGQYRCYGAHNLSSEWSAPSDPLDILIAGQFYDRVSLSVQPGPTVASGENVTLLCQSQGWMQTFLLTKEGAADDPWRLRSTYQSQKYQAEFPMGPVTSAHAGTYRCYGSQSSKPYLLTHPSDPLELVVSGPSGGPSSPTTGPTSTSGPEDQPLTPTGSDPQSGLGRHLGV

Which Kd does the source give for UL18 (from UniProt P08560) here?
Its Kd is 2 nM.
